Measured values: patent publication EP4671269A1 (Akeso Biopharma Co., Ltd., dated 2025)
Values belong to the binder of their own block, whether it stands above or below them.

Columns and labels:
TGF-β1 [1] = biological target: T1, TGF-β1 (human, UniProt P01137 279-390); assay: indirect ELISA, TGF-β1 coated
T1 construct: also called human TGF-β1; TGF-β1 protein

TGF-β1 [2] = biological target: T1, TGF-β1; assay: indirect ELISA, TGF-β1 coated; remark: listed apart in the source
TGF-β1 [3] = biological target: T1, TGF-β1; assay: competitive ELISA vs TGF-βRII-His-Biotin, TGF-β1 coated
human TIGIT-mFc [4] = biological target: T2, human TIGIT-mFc (human; mouse, UniProt Q495A1 22-141, limits assumed); assay: competitive ELISA vs CD155-hFc-Biotin, TIGIT-mFc coated
T2 construct: not shown: Fc protein fragment of mouse IgG
T2 sequence (looked up): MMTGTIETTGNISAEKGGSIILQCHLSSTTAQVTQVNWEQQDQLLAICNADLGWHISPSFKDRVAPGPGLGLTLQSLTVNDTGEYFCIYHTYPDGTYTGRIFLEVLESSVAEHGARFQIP

human TIGIT-hFc = biological target: T3, human TIGIT-hFc (human, UniProt Q495A1 22-141, limits assumed); assay: indirect ELISA, hybridoma screening
T3 construct: Screening antigen of the hybridoma ELISA; not shown: Fc protein fragment of human IgG
T3 sequence (looked up): T2 sequence (looked up)

[5] = biological target: T4, TIGIT on the cell membrane (293T-TIGIT, Jurkat-TIGIT-NFAT-Luc cells) (human, UniProt Q495A1 22-244); assay: FACS, 293T-TIGIT cells
T4 construct: whole, on cells; also called cell membrane surface antigen TIGIT
T4 sequence (looked up): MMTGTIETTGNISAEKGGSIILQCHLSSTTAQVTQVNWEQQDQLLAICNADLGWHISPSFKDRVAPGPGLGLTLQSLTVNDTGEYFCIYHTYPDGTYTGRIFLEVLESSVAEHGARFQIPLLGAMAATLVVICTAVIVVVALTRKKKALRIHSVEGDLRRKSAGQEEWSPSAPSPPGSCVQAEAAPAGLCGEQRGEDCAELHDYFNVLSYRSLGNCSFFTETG

human TIGIT-mFc [6] = biological target: T2, human TIGIT-mFc; assay: indirect ELISA, TIGIT-mFc captured on plate
[7] = biological target: T4, TIGIT on the cell membrane (293T-TIGIT, …); assay: competitive FACS vs CD112-mFc, 293T-TIGIT cells
[8] = biological target: T4, TIGIT on the cell membrane (293T-TIGIT, …); assay: competitive FACS vs CD155-mFc, 293T-TIGIT cells

EC50 (TGF-β1 [1]): 0.356 nM
EC50 (TGF-β1 [2]): 0.271 nM
EC50 (TGF-β1 [3]): 6.47 nM
B1: TGF-βRII-mFc (Fc fusion, UniProt P37173 24-159, looked up)
chain: IPPHVQKSVNNDMIVTDNNGAVKFPQLCKFCDVRFSTCDNQKSCMSNCSITSICEKPQEVCVAVWRKNDENITLETVCHDPKLPYHDFILEDAASPKCIMKEKKKPGETFFMCSCSSDECNDNIIFSEEYNTSNPD
notes: also called TGF-βR2-mFc; not shown: Fc protein fragment of mouse IgG

EC50 (human TIGIT-mFc [4]): 1.42 nM
B2: 26B12H2L2(hG4DM) (antibody, human IgG4 S228P, kappa, F234A L235A)
heavy: not shown
light: DIQMTQSPSSLSASVGDRVTITCRSSQHVSTALAWYQQKPGKSPKLLIYSASSRYSGVPDRFSGSGSGTDFTFTISSLQPEDFATYYCQQHYITPWTFGGGTKLEIKRTVAAPSVFIFPPSDEQLKSGTASVVCLLNNFYPREAKVQWKVDNALQSGNSQESVTEQDSKDSTYSLSSTLTLSKADYEKHKVYACEVTHQGLSSPVTKSFNRGEC
notes: Humanized anti-TIGIT antibody, IgG4 with F234A and L235A (EU numbering)

binding result (human TIGIT-hFc): binds
B3: 26B12 (antibody, V domains shown)
VH: EVQLQESGPGLVKPSQSLSLTCTVTGHSFTSDYAWNWIRQFPGNRLEWMGYISYSDSTNYNPSLKSRISITRDTSKNQFFLQMNSVTTEDTATYYCARLDYGNYGGAMDYWGQGTSVTVSS
VL: DIVLTQSHEFMSTSLRDRVSITCKSSQHVSTAVAWYQQKPGQSPKLLIYSASYRYTGVPDRFTGSGSGTDFTFTISSVKAEDLAVYYCQQHYITPWTFGGGTKLEIK
notes: Murine hybridoma antibody; also called anti-TIGIT antibody 26B12; monoclonal antibody secreted by hybridoma cell line LT019

EC50 [5]: 1.61 nM
EC50 (human TIGIT-mFc [6]): 0.055 nM
EC50 (human TIGIT-mFc [4]): 1.68 nM
B4: RG6058(hG4) (antibody, V domains shown)
VH: EVQLQQSGPGLVKPSQTLSLTCAISGDSVSSNSAAWNWIRQSPSRGLEWLGKTYYRFKWYSDYAVSVKGRITINPDTSKNQFSLQLNSVTPEDTAVFYCTRESTTYDLLAGPFDYWGQGTLVTVSS
VL: not shown
notes: Positive control anti-TIGIT antibody from CN108290946A; also called RG6058(hG4WT)

EC50 [7]: 0.837 nM
EC50 [8]: 1.28 nM
B5: Tiragolumab (antibody, human IgG1, kappa, V domains shown)
VH: B4 VH
VL: not shown
notes: Positive control anti-TIGIT antibody; also called RG6058(hG1WT)
